± gives the uncertainty stated by the source.

A short description of this data set: amyloid nucleation score (Sup35N fusion, yeast selection) (log enrichment); library NNK1; higher = more nucleation; inactive = no reads after selection. An outline of the steps: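 Peptides of 20 random codons, each fused to Sup35N, were expressed in psi-negative yeast. Cells were induced with 100 μM copper sulfate for 24 hours and grown 7 days at 30°C on medium lacking adenine and uracil, and plasmid inserts before and after selection were Illumina-sequenced. Nucleation scores are DiMSum log enrichments of output over input reads, centred on the mode score of non-aggregating sequences, and sequences under 100 input reads were excluded.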
Consider LRYSYTRDHSGTPYPSTGNS, for which the amyloid nucleation score was -0.74 ± 1.1.

The substance LSATGGMGIRF registered an amyloid nucleation score of -0.318 ± 1.2.

Take LSCPRLVTLCCNLWDKYSLW: the amyloid nucleation score amounted to 0.955 ± 0.28.

With LSCPRNYWRSSLLVFMDGSQ, the amyloid nucleation score came to 0.319 ± 0.63.

Take LSCSFDESW: the amyloid nucleation score was 0.024 ± 0.24.

LSERYVSTGVARDSGNAKVG displayed an amyloid nucleation score of 3.88 ± 0.11.

On to LSEYVKEAVVDPRLTFARIA, for which the amyloid nucleation score was -0.764 ± 0.89.

On to LSIRYWCYNLRLVQAHCFRV, for which the amyloid nucleation score was -0.657 ± 0.56.

LSLNIYCMRS: the amyloid nucleation score was 7.155 ± 0.045.

In turn, LSLTRAMGIYFRWVLSRSFG had an amyloid nucleation score of -0.837 ± 2.4.

Turning to LSLYESLSNPLVRSYRLFCR, the amyloid nucleation score was found to be 0.517 ± 0.45.

For the substance LSNKLEYPMSPLISAVLFSA, the amyloid nucleation score entry is “inactive”.

Turning to LSNLDMVM, the amyloid nucleation score result was “inactive”.

As for LSRFEQGHELLHKSVIYCEV, the amyloid nucleation score is -0.304 ± 0.32.

LSSFMAAGVSLMCNTFLIWH gave an amyloid nucleation score of 0.729 ± 0.51.

Consider LSSSGFWYWFT, for which the amyloid nucleation score was -0.251 ± 0.32.

Regarding LSTGLKFACATRVSYALVRV, the amyloid nucleation score came to 0.117 ± 0.5.

Regarding LSVNICKKY, the amyloid nucleation score was found to be 3.5 ± 0.1.

With LSVQTWFGLSACYTGQAKYS, the amyloid nucleation score was 0.171 ± 1.2.

Substance LSWES registered an amyloid nucleation score of -0.866 ± 0.73.

The substance LSYDSYSYIGLGGSLEIFWA gave an amyloid nucleation score of 0.182 ± 0.71.

On to LSYEDSSFNFLNSFYIKSWW, for which the amyloid nucleation score was -0.161 ± 0.5.

Substance LSYMGGIPGVLHVMPDAFTV displayed an amyloid nucleation score of -0.077 ± 0.7.

The substance LSYRSSRFGVS yielded an amyloid nucleation score of 0.3 ± 0.64.

With LTCMLVRRFGNFIDDSYARA, the amyloid nucleation score was -1.2 ± 0.5.

Substance LTCRYLACCSLRSGRQMLVG returned an amyloid nucleation score of -0.694 ± 1.2.

In turn, LTEYFSSVVEYDGYPVLSE showed an amyloid nucleation score of -0.91 ± 1.

The substance LTHVIGIPRQPCEPLVHLYG showed an amyloid nucleation score of -0.745 ± 2.4.

Substance LTITGSFIHPI yielded an amyloid nucleation score of -0.739 ± 0.79.

Regarding LTLFQYAFDVHETAVLKLEW, the amyloid nucleation score was -0.166 ± 0.4.

For the substance LTNGAVGVTFAQNVWPFYAN, the amyloid nucleation score is 3.67 ± 0.074.

LTTPSFYLAGCSSS: the amyloid nucleation score was -0.059 ± 0.36.

LTVKCCDVSWVRFWYCIAGG returned an amyloid nucleation score of 6.618 ± 0.056.

In turn, LVASSFDYMMLSSVGRGYGL returned an amyloid nucleation score of -0.245 ± 0.3.

The substance LVDSPCQRSYTRRPHTHWR registered an amyloid nucleation score of 0.15 ± 0.34.

In turn, LVFPWIISFCQRMWMLYQRY gave an amyloid nucleation score of 0.499 ± 0.35.

LVFVFWLKVEPPMLSTCMSK had an amyloid nucleation score of -1.16 ± 2.7.

Turning to LVFVVMYGSRPSLKWWGITC, the amyloid nucleation score was 0.473 ± 0.79.

LVILVTIVDFMEDLSW gave an amyloid nucleation score of 0.74 ± 0.54.

Substance LVKLIWRISAWHSWFVSR showed an amyloid nucleation score of 1.48 ± 0.8.

In the case of LVLANTDSLTLWFLVTYLTC, the amyloid nucleation score was -0.42 ± 0.62.

As for LVLIAA, the amyloid nucleation score entry is “inactive”.

Substance LVLLQVVIYGHLQCSFYQMH showed an amyloid nucleation score of 1.8 ± 0.23.

As for LVMCVFLSASVYVFPTHLSS, the amyloid nucleation score is -1.18 ± 1.4.

Regarding LVNVGGQEIKVMR, the amyloid nucleation score is 0.888 ± 0.2.

Substance LVNYLICWT gave an amyloid nucleation score of -0.078 ± 0.82.

Turning to LVPSWRVFVQHLGLFRAL, the amyloid nucleation score came to 0.333 ± 0.7.

Turning to LVQVIVHFGIYIISAKGQGT, the amyloid nucleation score is 3.1 ± 0.15.

Consider LVSCDIVWWTAMFGLLARMF, for which the amyloid nucleation score was determined as 0.591 ± 0.37.

LVSMRMAFCPWLVRKGIPL displayed an amyloid nucleation score of 0.206 ± 1.6.

For the substance LVTNAYTYSSTGIYDYVRPG, the amyloid nucleation score is 0.093 ± 0.81.

In turn, LVVDRGVNGCAFSWDTNDLS gave an amyloid nucleation score of -0.52 ± 0.71.

The substance LVVHTVRVQDR gave an amyloid nucleation score of -0.043 ± 0.41.

The substance LVYLA had an amyloid nucleation score of -0.569 ± 0.87.

With LWATNFCNTGFVYSLCIFSR, the amyloid nucleation score stood at 3.89 ± 0.12.

LWERGKCHEACVVPAKKEGT yielded an amyloid nucleation score of 0.039 ± 0.51.

For LWFGSHLTNCVKYDLKGESV, the amyloid nucleation score is 1.41 ± 0.47.

Substance LWGRGCMCWVVVARCFWPLR displayed an amyloid nucleation score of -0.153 ± 1.4.

Turning to LWHAYAKSGYPFGSMVGVHA, the amyloid nucleation score was found to be 0.703 ± 0.4.

In turn, LWIQMLAWCSRCM showed an amyloid nucleation score of 1.65 ± 0.32.

In the case of LWLRGLVSFRQSHGRTGKSS, the amyloid nucleation score is -0.126 ± 0.33.

For the substance LWMHAGSGRIKLETGCGAKC, the amyloid nucleation score entry was “inactive”.

LWRLANWRM had an amyloid nucleation score of -0.46 ± 0.27.

As to LWSFIGTGLITNMCISREFK, the amyloid nucleation score amounted to 0.743 ± 0.16.

In turn, LYAIYTAFNRVSSYSNMPVM registered an amyloid nucleation score of -0.599 ± 0.92.

As for LYANNMLSGILCNGFSTITS, the amyloid nucleation score was -0.339 ± 0.63.

Consider LYASASADHSRQRREGTPVL, for which the amyloid nucleation score is -0.54 ± 0.59.

LYAYDWLHEGNSSHKSDLVM came in with an amyloid nucleation score of -0.791 ± 0.77.

Take LYCTLLKDSVSSLAVTYMSY: the amyloid nucleation score is -0.071 ± 0.28.

Turning to LYCWVFSLSSMESNWLGQHT, the amyloid nucleation score is -0.012 ± 0.29.

As for LYDRCYGIRSSAIEGEEYKR, the amyloid nucleation score came out at 0.806 ± 0.97.

Regarding LYESYDMVEKQDRTWSKGSS, the amyloid nucleation score came to 0.281 ± 0.65.

Consider LYFEIYRVIIFKDAFVASMR, for which the amyloid nucleation score was -0.63 ± 0.64.

LYHRSSLGMVSVVGDSMSDT had an amyloid nucleation score of 0.596 ± 1.2.

As for LYKLTEFQAYKVIRPSACCV, the amyloid nucleation score was -1.13 ± 2.4.

For the substance LYLMGVRVMGNSICTLVRRL, the amyloid nucleation score entry was “inactive”.

Consider LYMYSLSFLMGGNANHRLGM, for which the amyloid nucleation score worked out at 1.98 ± 0.16.

LYRCYESG: the amyloid nucleation score was -0.378 ± 0.27.

In the case of LYSKLSALEFMQLAIQSHLD, the amyloid nucleation score turned out to be 1.96 ± 0.15.

LYSSLSYTKFMCAG displayed an amyloid nucleation score of -0.51 ± 0.81.

As to LYSVISPLSEDTYDCLSVPY, the amyloid nucleation score worked out at 0.297 ± 0.79.

For LYSVRLRSVSK, the amyloid nucleation score is -0.376 ± 0.25.

With LYVEYKRAMCVMGVSLWVN, the amyloid nucleation score was found to be 0.224 ± 0.19.

The substance LYVLYAIRFLSFCSFWRYLI registered an amyloid nucleation score of -1.15 ± 0.51.

LYVMRKSDMMLDFRNAANVG: the amyloid nucleation score was -0.142 ± 0.23.

LYYCSFRYMIKTRNLNVTFL returned an amyloid nucleation score of 6.4 ± 0.084.

Substance LYYFCLAINFSLGEGTAFVQ had an amyloid nucleation score of -0.133 ± 0.84.

In the case of MADEWLCQKCGSRVT, the amyloid nucleation score is -0.207 ± 0.59.

As for MAFLYFMFILFHARCLIRLP, the amyloid nucleation score is -0.177 ± 0.65.

For the substance MAGPYLVERRSMWASNARAE, the amyloid nucleation score is -1.07 ± 1.4.

On to MARPLRIHYNYSGSNDLRVR, for which the amyloid nucleation score is -0.444 ± 0.4.

MAVLGALNRSGNMGVGLFYN gave an amyloid nucleation score of -0.647 ± 0.4.

Turning to MCDDHWFPAIYKRLVSSNKQ, the amyloid nucleation score came to 1.87 ± 0.57.

The substance MCDIFAMLLIYQFDGKGTV came in with an amyloid nucleation score of 0.151 ± 0.17.

MCGNDWVYGDWIRSEIHGSS registered an amyloid nucleation score of -0.403 ± 0.59.

In turn, MCINIKKNMFR had an amyloid nucleation score of 4.74 ± 0.048.

The substance MCKYVMRVLHIVAG came in with an amyloid nucleation score of 0.699 ± 0.42.

Turning to MCREYVFDNSPVT, the amyloid nucleation score was -0.89 ± 1.2.

With MCSKWDFQVLSHTDSWVWV, the amyloid nucleation score was -0.67 ± 0.5.

MDAFPEFLGVVFHSDDFGVP came in with an amyloid nucleation score of -0.209 ± 0.39.

With MDKCIVSGVVESIFTGGAVI, the amyloid nucleation score was -0.361 ± 0.75.

These data come from the supplement of paper PMC12042874.
